According to US20180135070A1 (BOARD OF TRUSTEES OF MICHIGAN STATE UNIVERSITY, published 2018):

Molecular target: T1, MBP-JAZ9-8×His (recombinant, E. coli-expressed) (Arabidopsis, UniProt Q8W4J8 1-267, limits assumed)
T1 construct: procedure cited from Katsir et al. 2008; also called Escherichia coli-expressed JAZ9 protein
T1 sequence: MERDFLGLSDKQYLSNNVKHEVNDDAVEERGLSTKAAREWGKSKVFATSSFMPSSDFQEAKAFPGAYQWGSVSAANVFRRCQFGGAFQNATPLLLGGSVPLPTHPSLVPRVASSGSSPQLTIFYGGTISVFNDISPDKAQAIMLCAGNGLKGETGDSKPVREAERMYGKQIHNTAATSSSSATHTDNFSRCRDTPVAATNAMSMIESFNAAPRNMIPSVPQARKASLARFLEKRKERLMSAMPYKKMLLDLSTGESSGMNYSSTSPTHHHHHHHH
Experiment: Ni-resin pull-down of plant-expressed COI1-4×c-Myc with MBP-JAZ9-8×His, COR series, anti-c-Myc immunoblot
Description: Pull-down assays were performed with protein extracts from 4-mg pCOI1:COI1WT/A384V-4×c-Myc plants and 25 μg recombinant MBP-JAZ9-8×His. […] Eighty microliters of Ni resin (Invitrogen) were added, followed by an additional 15-min incubation period at 4° C. MBP-JAZ9-8×Hisbound Ni resin was washed three times on microcentrifuge spin columns with 0.25 mL binding buffer at 4° C. MBP-JAZ9-8×His was eluted from the resin with 100 μL of 300 mM imidazole. Proteins bound to MBP-JAZ9-8×His were analyzed by immunoblotting for the presence of COI1WT/A384V-4×c-Myc using anti-cMyc antibody. MBP-JAZ9-8×His recovered by the Ni affinity resin was detected by Coomassie blue staining.

B1: COI1A384V-4×c-Myc (plant-expressed) (receptor, not shown: small tags and cut ends)
chain: MEDPDIKRCKLSCVATVDDVIEQVMTYITDPKDRDSASLVCRRWFKIDSETREHVTMALCYTATPDRLSRRFPNLRSLKLKGKPRAAMFNLIPENWGGYVTPWVTEISNNLRQLKSVHFRRMIVSDLDLDRLAKARADDLETLKLDKCSGFTTDGLLSIVTHCRKIKTLLMEESSFSEKDGKWLHELAQHNTSLEVLNFYMTEFAKISPKDLETIARNCRSLVSVKVGDFEILELVGFFKAAANLEEFCGGSLNEDIGMPEKYMNLVFPRKLCRLGLSYMGPNEMPILFPFAAQIRKLDLLYALLETEDHCTLIQKCPNLEVLETRNVIGDRGLEVLAQYCKQLKRLRIERGADEQGMEDEEGLVSQRGLIALAQGCQELEYMVVYVSDITNESLESIGTYLKNLCDFRLVLLDREERITDLPLDNGVRSLLIGCKKLRRFAFYLRQGGLTDLGLSYIGQYSPNVRWMLLGYVGESDEGLMEFSRGCPNLQKLEMRGCCFSERAIAAAVTKLPSLRYLWVQGYRASMTGQDLMQMARPYWNIELIPSRRVPEVNQQGEIREMEHPAHILAYYSLAGQRTDCPTTVRVLKEPI
notes: In protein extracts of transgenic Arabidopsis (coi1-30 background); C-terminal 4×c-Myc tag; also called pCOI1:COI1A384V-4×c-Myc
For B1, the “fold higher COR concentration required for robust co-receptor formation, against COI1WT-JAZ9” value was about 100 fold.
